# B1: Twin-strep-tagged human IL-11 (ligand, UniProt P20809 22-199, looked up)
# chain: PGPPPGPPRVSPDPRAELDSTVLLTRSLLADTRQLAAQLRDKFPADGDHNLDSLPTLAMSAGALGALQLPGVLTRLRADLLSYLRHVQWLRRAGGSSLKTLEPELGTLQARLDRLLRRLQLLMSRLALPQPPPDPPAPPLAPPSSAWGGIRAAHAILGGLHLTLDWAVRGLLLLKTRL
# notes: human interleukin 11 (IL-11); A His-tagged hIL-11 from E. coli (hIL-11his) was used only in some Western blots of signalling, not in SPR; also called hIL-11ts; hIL-11
# B2: sgp130Fc (fusion protein of soluble hgp130 to the Fc-part of an IgG antibody) (Fc fusion, human, UniProt P40189 23-619, looked up)
# chain: ELLDPCGYISPESPVVQLHSNFTAVCVLKEKCMDYFHVNANYIVWKTNHFTIPKEQYTIINRTASSVTFTDIASLNIQLTCNILTFGQLEQNVYGITIISGLPPEKPKNLSCIVNEGKKMRCEWDGGRETHLETNFTLKSEWATHKFADCKAKRDTPTSCTVDYSTVYFVNIEVWVEAENALGKVTSDHINFDPVYKVKPNPPHNLSVINSEELSSILKLTWTNPSIKSVIILKYNIQYRTKDASTWSQIPPEDTASTRSSFTVQDLKPFTEYVFRIRCMKEDGKGYWSDWSEEASGITYEDRPSKAPSFWYKIDPSHTQGYRTVQLVWKTLPPFEANGKILDYEVTLTRWKSHLQNYTVNATKLTVNLTNDRYLATLTVRNLVGKSDAAVLTIPACDFQATHPVMDLKAFPKDNMLWVEWTTPRESVKKYILEWCVLSDKAPCITDWQQEDGTVHRTYLRGNLAESKCYLITVTPVYADGPGSPESIKAYLKQAPPSKGPTVRTKKVGKNEAVLEWDQLPVDVQNGFIRNYTIFYRTIIGNETAVNVDSSHTEYTLSSLTSDTLYMVRMAAYTDEGGKDGPEFTFTTPKFAQGEIE
# B3: Hyper IL-11 (fusion protein of shIL-11R and hIL-11), Twin-Strep-tagged (other)
# chain: SSPCPQAWGPPGVQYGQPGRSVKLCCPGVTAGDPVSWFRDGEPKLLQGPDSGLGHELVLAQADSTDEGTYICQTLDGALGGTVTLQLGYPPARPVVSCQAADYENFSCTWSPSQISGLPTRYLTSYRKKTVLGADSQRRSPSTGPWPCPQDPLGAARCVVHGAEFWSQYRINVTEVNPLGASTRLLDVSLQSILRPDPPQGLRVESVPGYPRRLRASWTYPASWPCQPHFLLKFRLQYRPAQHPAWSTVEPAGLEEVITDAVAGLPHAVRVSARDFLDAGTWSTWSPEAWGTPSTGGGSGGGSPGPPPGPPRVSPDPRAELDSTVLLTRSLLADTRQLAAQLRDKFPADGDHNLDSLPTLAMSAGALGALQLPGVLTRLRADLLSYLRHVQWLRRAGGSSLKTLEPELGTLQARLDRLLRRLQLLMSRLALPQPPPDPPAPPLAPPSSAWGGIRAAHAILGGLHLTLDWAVRGLLLLKTRL
# Legend:
# [1] = molecular target: T1, recombinant his-tagged soluble human IL-11R (human, UniProt Q14626 24-370); test: cell-based or functional assay
# T1 sequence (looked up): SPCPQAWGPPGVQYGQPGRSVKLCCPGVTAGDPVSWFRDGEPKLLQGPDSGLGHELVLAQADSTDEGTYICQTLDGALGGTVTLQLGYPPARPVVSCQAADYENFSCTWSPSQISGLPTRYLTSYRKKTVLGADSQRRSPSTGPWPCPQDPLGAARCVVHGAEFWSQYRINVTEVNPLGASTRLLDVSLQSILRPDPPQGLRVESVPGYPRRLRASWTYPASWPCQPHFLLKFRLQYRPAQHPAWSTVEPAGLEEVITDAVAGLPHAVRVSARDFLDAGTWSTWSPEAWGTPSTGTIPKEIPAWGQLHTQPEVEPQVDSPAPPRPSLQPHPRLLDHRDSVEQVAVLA
# [2] = molecular target: T1, recombinant his-tagged soluble human …; test: SPR; Biacore X100, multi-cycle, NTA sensor chip; his-tagged soluble hIL-6R or hIL-11R immobilised (100-250 RU per cycle); cytokines injected 133.33 to 0.183 nM, 30 uL/min, 180 s, dissociation 800 s; 25 °C, PBS with 0.05% P20 and 50 uM EDTA; two-state reaction fit; parameters: ka1 (two-state fit, first step) / ka2 (two-state fit, second step): unit not given here; conditions: both partners purified
# [3] = molecular target: T2, recombinant his-tagged soluble human IL-6R (human, UniProt P08887 20-365); test: as above; parameters: ka1 (two-state fit, first step) / ka2 (two-state fit, second step): unit not given here; conditions: both partners purified
# T2 construct: soluble human IL-6 α-receptor; In functional rows this id also stands for hIL-6R expressed on Ba/F3 cells (whole receptor); the readout says so; also called sIL-6R; shIL-6R; source: bought: R&D Systems (cat. no. 10537)
# T2 sequence (looked up): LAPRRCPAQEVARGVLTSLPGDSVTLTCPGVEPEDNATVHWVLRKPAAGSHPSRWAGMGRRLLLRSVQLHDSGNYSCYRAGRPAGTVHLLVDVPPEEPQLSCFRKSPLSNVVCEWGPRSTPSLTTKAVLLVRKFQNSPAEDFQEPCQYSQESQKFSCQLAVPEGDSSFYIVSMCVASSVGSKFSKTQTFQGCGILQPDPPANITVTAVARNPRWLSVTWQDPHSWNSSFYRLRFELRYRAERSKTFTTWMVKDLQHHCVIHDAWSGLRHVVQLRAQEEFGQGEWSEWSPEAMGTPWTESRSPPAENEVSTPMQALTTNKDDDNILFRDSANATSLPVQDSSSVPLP
# [4] = molecular target: chimeric Hyper-cytokine IL-6/sIL-11R (cHIL-6), Twin-Strep-tagged (human, UniProt Q14626 23-317); test: cell-based or functional assay
# [5] = molecular target: B3; test: cell-based or functional assay
# [6] = molecular target: Hyper IL-6 (fusion protein of human sIL-6R and human IL-6), Twin-Strep-tagged (human); test: cell-based or functional assay
# [7] = molecular target: B2; test: SPR; Biacore X100, Protein A sensor chip; sgp130Fc captured via its Fc (200-300 RU per cycle); hyper-cytokines injected 30 uL/min, 120 s, dissociation 300 s (200-0.20 nM cHIL-6, 25-0.05 nM HIL-6, 50-0.62 nM HIL-11); 1:1 binding model; conditions: both partners purified
# [8] = molecular target: B2; test: cell-based or functional assay
binder,measurement,setting,value
B1,"EC50 of proliferation of Ba/F3-hgp130-hIL-11R cells (hIL-11R on cells), 72 h",[1],0.0216 nM
same,Kd,[2],0.53 nM
same,"ka1 (two-state fit, first step)",[2],2.3e+06
same,"ka2 (two-state fit, second step)",[2],0.00454
same,"kd1 (two-state fit, first step)",[2],0.00692 s⁻¹
same,"kd2 (two-state fit, second step)",[2],0.000972 s⁻¹
same,Kd,[3],58.4 nM
same,"ka1 (two-state fit, first step)",[3],164000
same,"ka2 (two-state fit, second step)",[3],0.0112
same,"kd1 (two-state fit, first step)",[3],0.0925 s⁻¹
same,"kd2 (two-state fit, second step)",[3],0.00129 s⁻¹
B2,IC50 of sgp130Fc on growth of Ba/F3-gp130 cells induced by 1.7 nM cHIL-6 (blocks cHIL-6 with gp130 on cells),[4],0.324 nM
same,IC50 of sgp130Fc on growth of Ba/F3-gp130 cells induced by 1.7 nM HIL-11 (blocks HIL-11 with gp130 on cells),[5],0.213 nM
same,IC50 of sgp130Fc on growth of Ba/F3-gp130 cells induced by 1.7 nM HIL-6 (blocks HIL-6 with gp130 on cells),[6],0.428 nM
B3,Kd,[7],0.397 nM
same,koff,[7],0.000142 s⁻¹
same,kon,[7],360000 M⁻¹ s⁻¹
same,"EC50 of proliferation of Ba/F3-hgp130 cells (hgp130 on cells), 72 h",[8],0.0578 nM
